Reference: patent publication US20100047893A1 (RESEARCH FOUNDATION OF STATE UNIVERSITY OF NEW YORK, published 2010)

Molecular target: the molecule itself
Experiment: nondenaturing 4-20% PAGE and western blot of 1 ug recombinant TbPRMT7-His

B1: recombinant TbPRMT7-His (enzyme)
chain: MPPKQHRHQKKDKNDNALQNTIGFVPPGATLASVSGYRPPDAFVNRIDRNIPVPARLRHTPVSLIEAVNDFHYAMMNDEERNNFYYEVLKKHVTPETGVLEIGAGSGLLSLMAAKLGAKWVVAVEGSEELAKLARENIRANNMEHQVKVLHMMSTELKSKHLPEPPDVLLSEIFGTMMLGESALDYVVDVRNRLLKPTTKIIPQFGTQYAVPIECDALHRISSVSGWRDLDLKHMMTLQDTVSIVFAKHYGIRMNSVNFRRLSDPIELFRVDFSSSNRNDIPRRKHFDVVAKESGTAHAMLFYWKVTDDEFVMSTDPEDTVNNFPRDMQWGQALQLLDASNGPLPTPVVFTEGKNYNFECNFSGDRVILHMQLCPESGNGEMTECEGKTT
notes: also called T. brucei PRMT7; Tb927.7.5490; not shown: His tag
B1: binds.
